This is an account of results in patent US20240010750A1 (Bayer, published 2024).

One may read the EC50 as the concentration at which the effect is half-maximal. The low end stands for an effect from little substance, the high end for a need for much substance. The term EC50 (read off the curve) denotes the concentration at which the effect is half-maximal. Higher therefore signals a need for much substance.

In experiment [1] the target is T1, human alpha2-Antiplasmin (human, UniProt P08697 40-491).
T1 construct: Bought (antibodies online, ABIN2544306); also called human A2AP; a2AP
T1 sequence: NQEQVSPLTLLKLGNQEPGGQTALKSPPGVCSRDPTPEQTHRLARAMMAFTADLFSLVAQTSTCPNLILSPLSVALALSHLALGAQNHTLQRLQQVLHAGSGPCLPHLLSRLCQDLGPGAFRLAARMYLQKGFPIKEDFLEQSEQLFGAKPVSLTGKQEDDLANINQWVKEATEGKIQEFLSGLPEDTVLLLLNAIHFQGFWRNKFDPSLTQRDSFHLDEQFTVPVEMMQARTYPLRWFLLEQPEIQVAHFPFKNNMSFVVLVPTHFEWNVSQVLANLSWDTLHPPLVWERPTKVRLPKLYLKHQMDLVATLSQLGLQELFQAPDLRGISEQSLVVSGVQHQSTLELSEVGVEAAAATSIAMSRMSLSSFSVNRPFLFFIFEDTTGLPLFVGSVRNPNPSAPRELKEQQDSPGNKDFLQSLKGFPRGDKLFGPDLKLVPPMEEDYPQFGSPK
Description: ELISA, coated antigen, 1st exp. For orientation: In an ELISA, binding on a coated surface is turned into a signal by an enzyme label.

Experiment [2] concerns the target T2, rabbit alpha2-Antiplasmin (rabbit (Oryctolagus cuniculus)).
T2 construct: Made in house in HEK293 cells, purified by Ni-IMAC and SEC (a His tag is implied but not described); also called rabbit A2AP; Oryctolagus cuniculus A2AP
T2 chain: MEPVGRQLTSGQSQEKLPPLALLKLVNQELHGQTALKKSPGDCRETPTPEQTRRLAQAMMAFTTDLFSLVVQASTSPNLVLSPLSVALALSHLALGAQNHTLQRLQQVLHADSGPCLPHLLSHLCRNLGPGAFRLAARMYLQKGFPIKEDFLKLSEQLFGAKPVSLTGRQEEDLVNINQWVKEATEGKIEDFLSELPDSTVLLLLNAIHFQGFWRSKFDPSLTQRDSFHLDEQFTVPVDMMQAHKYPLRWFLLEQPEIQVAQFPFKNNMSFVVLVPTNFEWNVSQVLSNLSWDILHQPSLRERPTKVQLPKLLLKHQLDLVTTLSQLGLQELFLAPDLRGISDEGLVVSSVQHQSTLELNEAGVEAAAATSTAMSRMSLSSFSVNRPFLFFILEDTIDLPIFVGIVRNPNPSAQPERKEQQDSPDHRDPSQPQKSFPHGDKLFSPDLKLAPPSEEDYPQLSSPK
Nature of the experiment: ELISA, coated antigen, 1st exp.

Experiment [3] concerns the target T3, cynomolgus alpha2-Antiplasmin (cynomolgus (Macaca fascicularis), UniProt P08697 28-491 (human entry)).
T3 construct: Made in house in the same way as the rabbit protein; also called cynomolgus A2AP; Macaca fascicularis A2AP
T3 chain: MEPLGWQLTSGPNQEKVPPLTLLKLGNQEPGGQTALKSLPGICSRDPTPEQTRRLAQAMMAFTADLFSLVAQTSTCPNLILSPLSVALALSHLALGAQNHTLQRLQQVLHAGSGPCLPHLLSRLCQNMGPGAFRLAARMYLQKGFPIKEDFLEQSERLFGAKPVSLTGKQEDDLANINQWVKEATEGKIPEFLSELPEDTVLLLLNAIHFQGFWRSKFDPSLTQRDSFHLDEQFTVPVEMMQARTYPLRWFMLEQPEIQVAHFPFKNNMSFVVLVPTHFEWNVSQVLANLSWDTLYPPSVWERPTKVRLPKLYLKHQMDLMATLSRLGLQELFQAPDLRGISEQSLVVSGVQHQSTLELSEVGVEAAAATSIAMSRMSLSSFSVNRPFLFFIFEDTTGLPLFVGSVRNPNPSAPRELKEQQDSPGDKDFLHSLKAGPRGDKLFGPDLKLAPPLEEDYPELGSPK
Description: ELISA, coated antigen, 1st exp.

Experiment [4] addresses human Plasmin (human, UniProt P00747 97-580; P00747 581-810, limits assumed). Description: cell-based or functional assay.
The target in experiment [5] is T3, cynomolgus alpha2-Antiplasmin. Description: ELISA (Example 3): antigen coated at 1 ug/ml, detection with anti-human lambda light chain-peroxidase and Amplex Red, RFU. As for the experimental part: A standard ELISA format was used for analyzing the binding affinity of Fabs of this invention to human and rabbit alpha-2-Antiplasmin, respectively. Antigens were coated to black 384 well Maxisorp microtiter plates (Nunc; catalogue number 460518), diluted to a concentration of 1 μg/ml in 1× Coating Buffer (Candor Bioscience; catalogue number 121125). Plates were incubated overnight at 4° C. After overnight incubation, plates were washed 2× with 50 μl/well using PBS+0.05% Tween 20. Following this, 50 μl/well of blocking buffer (Smart Block; Candor Bioscience; catalogue number 113500) was added and the plates were incubated for 1 hour at room temperature. Afterwards, plates were washed for 3× using […] PBS+0.05% Tween 20 buffer. Fabs of this invention were added at different concentrations in a final volume of 30 μl/well. Plates were incubated for 1 hour at room temperature. Following this incubation step, plates were washed for 3× using 50 μl/well of a PBS+0.05% Tween 20 buffer. For the detection of bound Fabs and full-length antibodies, the anti-Human Lambda Light Chains (Bound and Free)—Peroxidase antibody (Sigma; catalogue number A5175) was diluted by the factor of 1:10.000 in 10% Blocking Buffer. 30 μl/well of this diluted detection antibody was added and plates are incubated for 1 hour at room temperature. […]

Experiment [6] deals with T1, human alpha2-Antiplasmin. Nature of the experiment: cell-based or functional assay.
Experiment [7] has as its target T2, rabbit alpha2-Antiplasmin. Description: cell-based or functional assay.
Experiment [8] has as its target T3, cynomolgus alpha2-Antiplasmin. Nature of the experiment: cell-based or functional assay.

A value given as a limit tells only on which side of the number the result lay.

human Plasmin, sequence (P00747 97-580 limits assumed, chain 1 of 2): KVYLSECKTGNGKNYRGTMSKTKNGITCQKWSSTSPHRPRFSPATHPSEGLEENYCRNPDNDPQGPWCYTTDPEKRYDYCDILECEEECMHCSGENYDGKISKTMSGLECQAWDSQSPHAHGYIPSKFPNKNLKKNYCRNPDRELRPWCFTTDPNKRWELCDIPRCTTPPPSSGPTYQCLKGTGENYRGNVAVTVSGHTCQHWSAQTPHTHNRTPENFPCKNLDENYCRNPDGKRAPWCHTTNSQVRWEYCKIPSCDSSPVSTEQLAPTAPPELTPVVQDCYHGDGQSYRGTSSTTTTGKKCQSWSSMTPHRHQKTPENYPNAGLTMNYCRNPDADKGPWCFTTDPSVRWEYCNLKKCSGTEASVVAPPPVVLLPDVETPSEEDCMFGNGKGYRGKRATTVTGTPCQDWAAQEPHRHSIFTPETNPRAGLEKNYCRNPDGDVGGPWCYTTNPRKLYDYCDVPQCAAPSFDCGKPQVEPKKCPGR
human Plasmin, sequence (P00747 581-810 limits assumed, chain 2 of 2): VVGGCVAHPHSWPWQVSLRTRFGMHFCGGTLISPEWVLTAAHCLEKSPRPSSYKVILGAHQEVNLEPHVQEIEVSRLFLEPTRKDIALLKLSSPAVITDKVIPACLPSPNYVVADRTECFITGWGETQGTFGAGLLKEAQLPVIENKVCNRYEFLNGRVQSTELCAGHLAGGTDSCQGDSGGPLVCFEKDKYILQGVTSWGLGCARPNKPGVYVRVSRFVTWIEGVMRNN

B1: TPP-12387 hIgG1 (antibody, V domains shown)
VH: EVQLLESGGGLVQPGGSLRLSCAASGFTFDDYAMSWVRQAPGKGLEWVSAIGTGGGTYYADSVKGRFTISRDNSKNTLYLQMNSLRAEDTAVYYCAREYYDSSGYYHLDYWGQGTLVTVSS
VL: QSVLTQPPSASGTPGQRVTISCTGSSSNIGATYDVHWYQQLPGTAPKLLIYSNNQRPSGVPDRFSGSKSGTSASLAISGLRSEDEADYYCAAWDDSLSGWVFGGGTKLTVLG
notes: Fully human IgG1 lambda from the BioInvent n-CoDeR Fab lambda library; parental lead antibody
On to B1, for which the EC50 in experiment [1] stood at 120 nM. In experiment [2], this molecule came in with an EC50 of 6 nM. The molecule also had an EC50 in experiment [3] of 90 nM. In addition, the “IC50 [M], inhibition of plasmin proteolytic activity” value in experiment [4] is > 1e-05 M. Besides, the “EC50 (read off the curve)” value in experiment [5] is ~100 nM. In addition, in experiment [6], the “function blocking activity IC50, 1st exp. (FIG. 5)” value turned out to be 170 nM; the “function blocking activity IC50, 2nd exp.” value was 180 nM; the “function blocking activity IC50, 3rd exp.” value came to 180 nM. For the same molecule, in experiment [7], the “function blocking activity EC50 (FIG. 5 legend)” value is 1.4 nM; the “printed as 'binding activity' in the sentence on function blocking (IC50), 1st exp.” value worked out at 14 nM; the “printed as 'binding activity' in the sentence on function blocking (IC50), 2nd exp.” value was determined as 13 nM; the “printed as 'binding activity' in the sentence on function blocking (IC50), 3rd exp.” value amounted to 15 nM. In experiment [8], the “function blocking activity IC50, 1st exp. (FIG. 6.2)” value turned out to be 160 nM and the “function blocking activity IC50, 2nd exp.” value amounted to 160 nM.
